Source: patent US20060034833A1 (published 2006)

T1: mouse IFN-γ receptor (IFN-γ R1/Fc) (mouse, UniProt P15261 26-253, limits assumed)
T1 construct: Bought Fc fusion, coated on plates; not shown: Fc part of the bought fusion; not described
T1 sequence (looked up): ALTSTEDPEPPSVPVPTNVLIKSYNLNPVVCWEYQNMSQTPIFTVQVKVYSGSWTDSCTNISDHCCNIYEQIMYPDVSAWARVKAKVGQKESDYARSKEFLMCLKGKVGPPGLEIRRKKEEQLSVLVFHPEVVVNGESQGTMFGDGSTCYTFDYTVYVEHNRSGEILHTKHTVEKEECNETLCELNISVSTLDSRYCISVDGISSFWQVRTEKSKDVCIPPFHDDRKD

T2: human IFN-gamma (human, UniProt P01579 24-166)
T2 construct: The cell-based assays used IFN-γ 'expressed in CHO'; also called human IFN-γ; Interferon gamma
T2 sequence (looked up): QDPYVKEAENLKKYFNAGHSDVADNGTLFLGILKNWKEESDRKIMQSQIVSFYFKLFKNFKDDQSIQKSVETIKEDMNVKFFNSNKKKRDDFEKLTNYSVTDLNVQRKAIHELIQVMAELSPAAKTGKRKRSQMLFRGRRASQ

B1: mouse IFN-gamma (ligand, UniProt P01580 23-155, looked up)
chain: HGTVIESLESLNNYFNSSGIDVEEKSLFLDIWRNWQKDGDMKILQSQIISFYLRLFEVLKDNQAISNNISVIESHLITTFFSNSKAKKDAFMSIAKFEVNNPQVQRQAFNELIRVVHQLLPESSLRKRKRSRC
notes: Used biotinylated (biotinamidocaproic acid 3-sulfo N-hydroxysuccinimide ester) in the assays; also called mouse IFN-γ; biotinylated mouse IFN-γ
B2: MP3C7SRA (VHH)
VHH: QVQLQESGGGLVQAGDSLRLSCAASGRSFSSYGMGWFRQAPGKEHEFVAGIWRSGVSLYYADSVKGRFTISRDDAKMTVSLQMNSLKPEDTAVYYCAAEATFPTWNRGRFADYDYSGQGTQVTVSS
B3: MP3B1SRA (VHH)
VHH: QVQLQESGGGLVQPGGSLRLSCAASGFTSSNYAMSWVRQAPGKGLEWVSSINSRTGSITYADSVKGRFTITLDNAKNTLYLQMNSLKPEDTAVYYCASRVDDRVSRGQGTQVTVSS
B4: MP4C10SR (VHH)
VHH: QVQLQESGGGLVQPGGSLRLSCAASGFTVSNYAMSWVRQPPGKGIEWVSSINNRNDHITYADSVKGRFTIARDNANNILYLQMNSLKPEDTAVYYCASRVDDRVSRGQGTQVTVSS
B5: MP3C1SR (VHH)
VHH: QVQLQDSGGGLVQAGGSLRLSCAAAGISGSVFSRTPMGWYRQAPGKQRELVAGILSSGATVYAESVKGRFTISRDNAKNTVYLQMNSLSPEDTAEYYCNTYPTWVLSWGQGTQVTVSS
B6: MP2F6SR (VHH)
VHH: QVKLEESGGGLVQAGGSLRLSCAASGRTFNNYNMGWFRQAPGKEREFVAAISWNGGSTYYDDSVKGRFTISRDNANNLVYLQMNSLNFEDTAVYYCACAANPYGIPQYRENRYDFWGQGTQVTVSS
B7: MP3F1SRA (VHH)
VHH: QVQLQESGGGLVQAGGSLTLSCVASGRTISDYAVGWFRQAPGKEREFVASISWGGGFTAFADSMKGRFTISRDNAKNTVYLQTHTLEPDDTSVYYCASSRRYCTGYRCYATASEFDSWGQGTQVTVSS
B8: MP2F1BR (VHH)
VHH: AVQLVESGGGLVQTGDSLRLSCVASGGTFSRYAMGWFRQAPGKEREFVARIGYSGRSISYATSVEGRFAISRDNAKNTVYLQMNSLKPEDTAVYYCASLVSGTLYQADYWGQGTQVTVSS
B9: MP3D2BR (VHH)
VHH: QVQLQESGGGLVQPGESLRLSCAASRGIFRFNAGGWYRQAPGKQRELVAFIGVDNTTRYIDSVKGRFTISRDNAKTTVYLQMNSLQPEDTAVYYCNKVPYIDWGQGTQVTVSS
B10: MP3A7SRA (VHH)
VHH: QVQLQDSGGGLVQAGGSLRLSCAASGRTFSSFRMGWFRRAPGEEREFVAFVRSNGTSTYYADSVEGRFTITRDNAKNTVYLRMDSLKPEDTAVYYCAAATRDYGGSFDYWGQGTQVIVSS
B11: MP6 B1 BR (VHH)
VHH: QVQLQESGGGLVQAGGSLRLSCAASGFTSDDYAIGWFRQAPGKEREGVSCISSSDGVTYYADSVKGRFTISSDNAKNTVYLQMNSLKPEDTAVYYCAADSLPLCFSGSYYHPYEYDYLGQGTQVTVSS
notes: Llama VHH selected on mouse IFN-γ
B12: MP6 B12 BR (VHH)
VHH: QVQLQESGGGLVQAGGSLRLSCAASGFTFDDYDIGWFRQAPGKEREEVSCISNIDGSTYYADSVKGRFTISSDNAKNTAYLQMSSLKPEDTAVYYCAADIYVRCVHGLSPGYWGQGIQVTVSS
notes: as for B11
B13: MP6 B10 BR (VHH)
VHH: QVQLQDSGGGLVQLGGSLRLSCAISGRILGSYAVGWFRQAPGKERQFVAAIGWSYGNTYYADSVKGRFTISRDNAKNTVYLQINSLKPEDTAVYYCAAGDTYLTGRPNEYAYWGQGTQVTVSS
notes: as for B11
B14: MP6 C11 BR (VHH)
VHH: QVQLQESGGGLVQAGGSLRLSCAASGRTFSTYAMGWFRQAPGKEREFVAGITSSGGYTYYADSVKGRFTISRDNAKNTVYLQMNSLKPEDTAVYYCAAGFRVGIALDLKGRYDYWGQGTQVTVSS
notes: as for B11
B15: MP6 D6 BR (VHH)
VHH: QVQLQESGGGLVQAGGSLRLSCAVSGSIFSLLAMGWFRQAPGKERELVASVSTHSNTNYADSVKGRFTISRDNAKNTVYLQMNSLKPEDTAVYYCNAGGRYSARVYWGQGTQVTVSS
notes: as for B11
B16: MP6 A8 BR (VHH)
VHH: QVQLQESGGGLVQAGGSLRLSCAASGFTFDDYAIGWFRQAPGKELEGVSMINSGGGSTYYADSVKGRFTISSDNAKNTVYLQMNSLKPEDTAVYYCAADQNARLFRLWVVTGTGPVDNALDAWGQGTLVTVSS
notes: as for B11
B17: MP2F6SR/MP2F6SR (VHH)
chain: QVKLEESGGGLVQAGGSLRLSCAASGRTFNNYNMGWFRQAPGKEREFVAAISWNGGSTYYDDSVKGRFTISRDNANNLVYLQMNSLNFEDTAVYYCACAANPYGIPQYRENRYDFWGQGTQVTVSSEPKTPKPQPAAAQVKLEESGGGLVQAGGSLRLSCAASGRTFNNYNMGWFRQAPGKEREFVAAISWNGGSTYYDDSVKGRFTISRDNANNLVYLQMNSLNFEDTAVYYCACAANPYGIPQYRENRYDFWGQGTQVTVSS

biological target: T1, mouse IFN-γ receptor (IFN-γ R1/Fc); experiment: ELISA: biotinylated mouse IFN-γ on coated mouse IFN-γ R1/Fc, Extravidin-AP
Experimental: 96-well microtiter plates were coated with human IFN-γ receptor (IFN-γ R1 (R&D Systems, Cat Nr: 673-IR/CF) or mouse IFN-γ receptor (IFN-γ R1/Fc (R&D Systems, Cat Nr:1026-GR) at 1 μg/ml in PBS overnight at 4° C. Plates were washed 5 times with PBS/0.05% Tween-20. Plates were blocked for 2 hrs at room temperature using PBS+1% Caseine. A dilution serie of biotinylated human or mouse IFN-γ was incubated for 1 hr at room temperature. Plates were washed 5 times with PBS/0.05% Tween-20. Binding was detected using Extravidin-AP and pNPP. Plates were read at 405 nm after 30 minutes incubation at room temperature.

B1: binds.

biological target: T2, human IFN-gamma; experiment: competition ELISA: VHH pre-incubated with biotinylated human IFN-γ, coated human IFN-γ receptor
Experimental: Mouse or human IFN-γ receptor was coated at a concentration of 1-2 μg/ml overnight at 4° C. Plates were washed 5 times with PBS/0.05% Tween-20. Wells were blocked with 1% caseine overnight at 4° C. VHH was pre-incubated with 20 ng biotinylated human or mouse IFN-γ for 30 minutes at room temperature. The mixture was applied to the wells and incubated for 1 hr at room temperature. Detection was performed using Extravidin-AP and pNPP as substrate. Plates were read at 405 nm after 30 minutes incubation at room temperature. Abcam AB 7812 polyclonal antibody was used as a positive control showing a dosis-dependent inhibition of human IFN-γ/IFN-γ receptor as presented in FIG. 7.
As presented in Table 6, a dose-dependent inhibition assay to determine the IC50 was performed for representative clones of each sequence family.

Point of comparison: B7, IC50 8 µg/mL. Against it:
- B2 — higher, > 200 µg/mL
- B3 — 2.5-fold higher, 20 µg/mL
- B4 — higher, > 200 µg/mL
- B5 — higher, > 200 µg/mL
- B6 — 4.6-fold lower, 1.75 µg/mL
- B8 — the same, 8 µg/mL
- B9 — 2-fold lower, 4 µg/mL
- B10 — 1.6-fold lower, 5 µg/mL

biological target: B1; experiment: ELISA screening of selected clones on captured biotinylated mouse IFN-γ (Examples 7 and 8)
Experimental: To examine the clones selected using biotinylated human or mouse IFN-γ, wells were coated with neutravidine at a concentration of 2 μg/ml overnight at 4° C. Plates were washed 5 times with PBS/0.05% Tween-20. Wells were blocked with 1% caseine for 2 hrs at room temperature. Biotinylated mouse or human IFN-γ at a concentrabon of 1 μg/ml was captured overnight at 4° C. Plates were washed 5 times with PBS/0.05% Tween-20. Culture supernatant (⅓ diluted) was applied to the wells. Detection was performed using anti-c-myc antibody, followed by anti-mouse-HRP and ABTS/H₂O₂ as substrate. Plates were read at 405 nm after 30 minutes incubation at room temperature.

B11: binds.
B12: binds.
B13: binds.
B14: binds.
B15: binds.
B16: binds.

biological target: T2, human IFN-gamma; experiment: cell-based or functional assay

Point of comparison: B17, IC50 (nM), cell-based inhibition assay (FS4 cells treated with IFN-γ pre-incubated with VHH, EMC virus, MTT) 0.15 nM. Against it:
- B2 — 50000-fold higher, 7500 nM
- B3 — 60000-fold higher, 9000 nM
- B4 — far higher, 200000 nM
- B5 — 60000-fold higher, 9000 nM
- B6 — 10000-fold higher, 1500 nM
- B7 — 60000-fold higher, 9000 nM
- B8 — 33000-fold higher, 5000 nM
- B9 — 60000-fold higher, 9000 nM
- B10 — 60000-fold higher, 9000 nM
